Laboratory results: publication PMC7810697, “Sarcolipin alters SERCA1a interdomain communication by impairing binding of both calcium and ATP” (Scientific Reports, 2021)

Assays:
[1] = molecular target: native SERCA1a in DDM-solubilized rabbit sarco-endoplasmic reticulum membranes (rabbit) (UniProt P04191)
[2] = molecular target: recombinant wild-type rabbit SERCA1a (sarco-endoplasmic reticulum Ca2+-ATPase, isoform 1a) expressed in S. cerevisiae (rabbit) (UniProt P04191)
[3] = molecular target: native SERCA1a in DDM-solubilized rabbit sarco-endoplasmic reticulum membranes (rabbit) (UniProt P04191); remark: listed apart in the source
[4] = molecular target: recombinant wild-type rabbit SERCA1a (sarco-endoplasmic reticulum Ca2+-ATPase, isoform 1a) expressed in S. cerevisiae (rabbit) (UniProt P04191); remark: listed apart in the source

Sequence of native SERCA1a in DDM-solubilized rabbit sarco-endoplasmic reticulum membranes (rabbit) (P04191 other isoform, or with tags, fused parts or gaps): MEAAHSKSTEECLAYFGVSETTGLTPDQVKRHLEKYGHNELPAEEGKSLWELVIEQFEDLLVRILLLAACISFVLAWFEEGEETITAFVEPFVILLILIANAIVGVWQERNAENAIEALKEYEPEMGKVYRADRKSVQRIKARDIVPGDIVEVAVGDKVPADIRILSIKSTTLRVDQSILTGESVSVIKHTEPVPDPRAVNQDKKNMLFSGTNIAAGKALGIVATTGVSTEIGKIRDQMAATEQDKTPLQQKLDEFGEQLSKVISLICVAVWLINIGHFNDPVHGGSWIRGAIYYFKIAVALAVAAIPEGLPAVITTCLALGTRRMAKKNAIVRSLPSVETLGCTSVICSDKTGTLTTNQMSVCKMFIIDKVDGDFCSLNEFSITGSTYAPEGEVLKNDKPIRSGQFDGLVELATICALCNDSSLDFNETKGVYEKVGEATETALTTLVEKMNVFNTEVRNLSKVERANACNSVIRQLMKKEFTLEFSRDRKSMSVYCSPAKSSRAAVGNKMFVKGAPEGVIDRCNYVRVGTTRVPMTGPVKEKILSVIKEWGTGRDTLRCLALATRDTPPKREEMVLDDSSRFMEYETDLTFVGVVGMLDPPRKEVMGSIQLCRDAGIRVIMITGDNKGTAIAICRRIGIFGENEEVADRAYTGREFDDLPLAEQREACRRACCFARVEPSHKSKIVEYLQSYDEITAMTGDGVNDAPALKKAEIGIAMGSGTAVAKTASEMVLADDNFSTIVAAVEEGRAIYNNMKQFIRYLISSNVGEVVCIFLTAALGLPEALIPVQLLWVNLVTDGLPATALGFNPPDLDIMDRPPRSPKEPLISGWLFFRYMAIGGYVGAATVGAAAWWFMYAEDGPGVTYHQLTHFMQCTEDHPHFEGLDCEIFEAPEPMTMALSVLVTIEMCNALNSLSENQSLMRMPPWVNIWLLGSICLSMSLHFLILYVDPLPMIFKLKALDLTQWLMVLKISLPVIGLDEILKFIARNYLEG
Sequence of recombinant wild-type rabbit SERCA1a (sarco-endoplasmic reticulum Ca2+-ATPase, isoform 1a) expressed in S. cerevisiae (rabbit) (P04191 other isoform, or with tags, fused parts or gaps): as above

Row | SLN:SERCA1a ratio at half-inhibition of the phosphoenzyme level (ratios 1:1 to 1:50) (mol SLN added per mole of SERCA1a) [1] | amplitude of the inhibition of the phosphoenzyme level (dose-response fit) [1] [%] | SLN:SERCA1a ratio at half-inhibition of the phosphoenzyme level (ratios 1:1 to 1:50) (mol SLN added per mole of SERCA1a) [2] | amplitude of the inhibition of the phosphoenzyme level (dose-response fit) [2] [%] | t1/2 of phosphorylation from [γ32P]ATP starting from a calcium-deprived state, Sarcolipin:SERCA1a 10:1 (6.8 without SLN) [2] [s] | IC50 of inhibition of the phosphoenzyme level, as told in the discussion (mol added SLN/mole of SERCA1a) [3] | IC50 of inhibition of the phosphoenzyme level, as told in the discussion (mol of added SLN/mole of SERCA1a) [4] | Substance
1 | 3.1 | 19 | 4.7 | 28.6 | 13.7 | 2.9 | 4.5 | chemically synthesized non-palmitoylated rabbit sarcolipin (peptide)
2 | 5.9 | 28.1 | 5.1 | 31.2 | 13.5 | 5.6 | 5 | chemically synthesized S-palmitoylated rabbit sarcolipin (peptide)
